According to paper PMC9482650, “Quantitative fragmentomics allow affinity mapping of interactomes” (Nature Communications, 2022):

The binders below were run against DLG2_2, Q15700 (assay: holdup assay). Settings: plain residues with an end cap or a label only (N-terminal biotin on a linker: ado-ado).
DLG2_2, Q15700, sequence (Q15700 189-283): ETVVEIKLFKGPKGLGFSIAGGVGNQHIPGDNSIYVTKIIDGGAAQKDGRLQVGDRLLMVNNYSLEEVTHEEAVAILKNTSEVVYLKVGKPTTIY
Design: key: below the threshold = too weak to quantify, mostly under pKd 3.1 to 4
For KIEDVEITLV [FCHSD2, O94868], the pKd was 3.74.
STYCDYTIEI [FAM71C, Q8NEG0] was tested, and the pKd was “below the threshold”.

What follows are binders tested against GORASP2, Q9H8Y8 (assay: holdup assay). Settings: plain residues with an end cap or a label only (N-terminal biotin on a linker: ado-ado).
Design: key: below the threshold = too weak to quantify, mostly under pKd 3.1 to 4
For KIEDVEITLV [FCHSD2, O94868], the pKd was 4.01.
Work on STYCDYTIEI [FAM71C, Q8NEG0] yielded a pKd of 4.41.

The binders below were run against TJP1_3, Q07157 (assay: holdup assay). Settings: plain residues with an end cap or a label only (N-terminal biotin on a linker: ado-ado).
TJP1_3, Q07157, sequence (Q07157 416-512): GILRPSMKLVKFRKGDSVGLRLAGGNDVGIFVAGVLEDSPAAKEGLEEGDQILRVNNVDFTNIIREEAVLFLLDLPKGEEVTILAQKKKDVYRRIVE
Design: key: below the threshold = too weak to quantify, mostly under pKd 3.1 to 4
For KIEDVEITLV [FCHSD2, O94868], the pKd was “below the threshold”.
In the case of STYCDYTIEI [FAM71C, Q8NEG0], the pKd is reported as “below the threshold”.

The binders below were run against T1, HTRA3, P83110 (assay: holdup assay). Settings: plain residues with an end cap or a label only (N-terminal biotin on a linker: ado-ado).
T1 sequence (P83110 354-453, limits assumed, looked up): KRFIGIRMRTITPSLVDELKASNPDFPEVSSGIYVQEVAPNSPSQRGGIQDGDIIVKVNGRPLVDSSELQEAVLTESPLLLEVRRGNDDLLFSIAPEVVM
Design: key: below the threshold = too weak to quantify, mostly under pKd 3.1 to 4
In the case of KIEDVEITLV [FCHSD2, O94868], the pKd is reported as 3.71.
STYCDYTIEI [FAM71C, Q8NEG0] was tested, and the pKd was 4.08.

The binders below were run against Inadl_9, Q8NI35 (assay: holdup assay). Settings: plain residues with an end cap or a label only (N-terminal biotin on a linker: ado-ado).
Inadl_9, Q8NI35, sequence (Q8NI35 1530-1615): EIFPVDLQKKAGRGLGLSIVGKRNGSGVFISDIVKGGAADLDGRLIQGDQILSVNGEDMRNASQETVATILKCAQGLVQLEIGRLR
Design: key: below the threshold = too weak to quantify, mostly under pKd 3.1 to 4
KIEDVEITLV [FCHSD2, O94868] gave a pKd of 3.68.
STYCDYTIEI [FAM71C, Q8NEG0] was tested, and the pKd was 4.19.

What follows are binders tested against LAP2, Q96RT1 (assay: holdup assay). Settings: plain residues with an end cap or a label only (N-terminal biotin on a linker: ado-ado).
LAP2, Q96RT1, sequence (Q96RT1 other isoform, or with tags, fused parts or gaps): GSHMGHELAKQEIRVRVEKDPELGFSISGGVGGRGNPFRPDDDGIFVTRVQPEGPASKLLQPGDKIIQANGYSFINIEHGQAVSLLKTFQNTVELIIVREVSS
Design: key: below the threshold = too weak to quantify, mostly under pKd 3.1 to 4
KIEDVEITLV [FCHSD2, O94868] was tested, and the pKd was 3.84.
For STYCDYTIEI [FAM71C, Q8NEG0], the pKd was “below the threshold”.

These binders were tested against T2, DFNB31_2, Q9P202 (assay: holdup assay). Settings: plain residues with an end cap or a label only (N-terminal biotin on a linker: ado-ado).
T2 sequence (Q9P202 274-371, limits assumed, looked up): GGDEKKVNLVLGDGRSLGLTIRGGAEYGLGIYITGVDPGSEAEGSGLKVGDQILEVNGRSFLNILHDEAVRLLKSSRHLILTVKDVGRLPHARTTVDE
Design: key: below the threshold = too weak to quantify, mostly under pKd 3.1 to 4
With KIEDVEITLV [FCHSD2, O94868] the pKd was “below the threshold”.
With STYCDYTIEI [FAM71C, Q8NEG0] the pKd was “below the threshold”.

Each binder was assayed against T3, PARD3B_1, Q8TEW8 (assay: holdup assay). Settings: plain residues with an end cap or a label only (N-terminal biotin on a linker: ado-ado).
T3 sequence (Q8TEW8 196-299, limits assumed, looked up): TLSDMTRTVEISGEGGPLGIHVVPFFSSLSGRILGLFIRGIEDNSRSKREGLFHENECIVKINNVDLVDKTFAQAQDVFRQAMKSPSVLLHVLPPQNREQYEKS
Design: key: below the threshold = too weak to quantify, mostly under pKd 3.1 to 4
Binder KIEDVEITLV [FCHSD2, O94868] has a pKd of 3.91.
Work on STYCDYTIEI [FAM71C, Q8NEG0] yielded a pKd of 4.1.

These binders were tested against T4, GRIP1_4, Q9Y3R0 (assay: holdup assay). Settings: plain residues with an end cap or a label only (N-terminal biotin on a linker: ado-ado).
T4 sequence (Q9Y3R0 467-571, limits assumed, looked up): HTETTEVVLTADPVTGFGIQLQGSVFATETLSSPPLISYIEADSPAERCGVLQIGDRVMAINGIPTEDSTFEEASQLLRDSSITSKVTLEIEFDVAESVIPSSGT
Design: key: below the threshold = too weak to quantify, mostly under pKd 3.1 to 4
For KIEDVEITLV [FCHSD2, O94868], the pKd was “below the threshold”.
In the case of STYCDYTIEI [FAM71C, Q8NEG0], the pKd is reported as “below the threshold”.

Each binder was assayed against T5, DLG3_3, Q92796 (assay: holdup assay). Settings: plain residues with an end cap or a label only (N-terminal biotin on a linker: ado-ado).
T5 sequence (Q92796 374-475, limits assumed, looked up): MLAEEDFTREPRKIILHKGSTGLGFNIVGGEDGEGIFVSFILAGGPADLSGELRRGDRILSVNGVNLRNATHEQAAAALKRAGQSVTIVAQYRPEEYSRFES
Design: key: below the threshold = too weak to quantify, mostly under pKd 3.1 to 4
In the case of KIEDVEITLV [FCHSD2, O94868], the pKd is reported as “below the threshold”.
STYCDYTIEI [FAM71C, Q8NEG0] was tested, and the pKd was “below the threshold”.

The binders below were run against Inadl_10, Q8NI35 (assay: holdup assay). Settings: plain residues with an end cap or a label only (N-terminal biotin on a linker: ado-ado).
Inadl_10, Q8NI35, sequence (Q8NI35 1673-1763): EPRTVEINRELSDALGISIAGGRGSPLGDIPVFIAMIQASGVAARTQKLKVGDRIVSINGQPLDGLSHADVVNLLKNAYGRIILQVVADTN
Design: key: below the threshold = too weak to quantify, mostly under pKd 3.1 to 4
In the case of KIEDVEITLV [FCHSD2, O94868], the pKd is reported as “below the threshold”.
STYCDYTIEI [FAM71C, Q8NEG0] was tested, and the pKd was “below the threshold”.

What follows are binders tested against NHERF4_4, Q86UT5 (assay: holdup assay). Settings: plain residues with an end cap or a label only (N-terminal biotin on a linker: ado-ado).
NHERF4_4, Q86UT5, sequence (Q86UT5 464-550): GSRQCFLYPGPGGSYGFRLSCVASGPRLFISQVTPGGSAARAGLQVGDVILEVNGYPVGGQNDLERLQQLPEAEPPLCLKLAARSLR
Design: key: below the threshold = too weak to quantify, mostly under pKd 3.1 to 4
With KIEDVEITLV [FCHSD2, O94868] the pKd was “below the threshold”.
STYCDYTIEI [FAM71C, Q8NEG0] gave a pKd of 4.68.

The binders below were run against TJP2_1, Q9UDY2 (assay: holdup assay). Settings: plain residues with an end cap or a label only (N-terminal biotin on a linker: ado-ado).
TJP2_1, Q9UDY2, sequence (Q9UDY2 24-128): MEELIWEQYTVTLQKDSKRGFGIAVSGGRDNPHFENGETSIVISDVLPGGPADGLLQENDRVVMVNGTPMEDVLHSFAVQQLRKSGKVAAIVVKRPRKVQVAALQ
Design: key: below the threshold = too weak to quantify, mostly under pKd 3.1 to 4
For KIEDVEITLV [FCHSD2, O94868], the pKd was “below the threshold”.
For STYCDYTIEI [FAM71C, Q8NEG0], the pKd was “below the threshold”.

What follows are binders tested against T6, RHPN1, Q8TCX5 (assay: holdup assay). Settings: plain residues with an end cap or a label only (N-terminal biotin on a linker: ado-ado).
T6 sequence (Q8TCX5 508-602, limits assumed, looked up): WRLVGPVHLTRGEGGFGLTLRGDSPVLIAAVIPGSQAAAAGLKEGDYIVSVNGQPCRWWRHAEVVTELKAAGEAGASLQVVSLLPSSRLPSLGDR
Design: key: below the threshold = too weak to quantify, mostly under pKd 3.1 to 4
KIEDVEITLV [FCHSD2, O94868] showed a pKd of 4.76.
STYCDYTIEI [FAM71C, Q8NEG0] showed a pKd of 3.47.

The binders below were run against T7, LIN7B, Q9HAP6 (assay: holdup assay). Settings: plain residues with an end cap or a label only (N-terminal biotin on a linker: ado-ado).
T7 sequence (Q9HAP6 88-185, limits assumed, looked up): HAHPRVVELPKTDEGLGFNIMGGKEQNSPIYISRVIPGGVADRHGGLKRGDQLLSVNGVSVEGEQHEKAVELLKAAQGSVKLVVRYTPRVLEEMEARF
Design: key: below the threshold = too weak to quantify, mostly under pKd 3.1 to 4
In the case of KIEDVEITLV [FCHSD2, O94868], the pKd is reported as “below the threshold”.
For STYCDYTIEI [FAM71C, Q8NEG0], the pKd was “below the threshold”.

These binders were tested against IL16_1, Q14005 (assay: holdup assay). Settings: plain residues with an end cap or a label only (N-terminal biotin on a linker: ado-ado).
IL16_1, Q14005, sequence (Q14005 210-306): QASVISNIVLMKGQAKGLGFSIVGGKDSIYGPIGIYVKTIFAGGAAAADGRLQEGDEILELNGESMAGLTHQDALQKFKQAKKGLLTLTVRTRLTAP
Design: key: below the threshold = too weak to quantify, mostly under pKd 3.1 to 4
KIEDVEITLV [FCHSD2, O94868] showed a pKd of 3.48.
With STYCDYTIEI [FAM71C, Q8NEG0] the pKd was “below the threshold”.

Each binder was assayed against T8, PTPN13_1, Q12923 (assay: holdup assay). Settings: plain residues with an end cap or a label only (N-terminal biotin on a linker: ado-ado).
T8 sequence (Q12923 1088-1188, limits assumed, looked up): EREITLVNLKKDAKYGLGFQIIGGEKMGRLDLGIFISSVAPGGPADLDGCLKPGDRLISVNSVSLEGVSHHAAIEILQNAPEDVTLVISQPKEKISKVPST
Design: key: below the threshold = too weak to quantify, mostly under pKd 3.1 to 4
In the case of KIEDVEITLV [FCHSD2, O94868], the pKd is reported as “below the threshold”.
In the case of STYCDYTIEI [FAM71C, Q8NEG0], the pKd is reported as “below the threshold”.

The binders below were run against T9, SYNJ2BP, P57105 (assay: holdup assay). Settings: plain residues with an end cap or a label only (N-terminal biotin on a linker: ado-ado).
T9 sequence (P57105 8-110, limits assumed, looked up): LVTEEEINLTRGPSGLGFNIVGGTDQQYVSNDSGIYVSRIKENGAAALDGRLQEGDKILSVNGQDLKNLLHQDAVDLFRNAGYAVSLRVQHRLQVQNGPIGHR
Design: key: below the threshold = too weak to quantify, mostly under pKd 3.1 to 4
Binder KIEDVEITLV [FCHSD2, O94868] has a pKd of 3.82.
For STYCDYTIEI [FAM71C, Q8NEG0], the pKd was “below the threshold”.

What follows are binders tested against NOS1, P29475 (assay: holdup assay). Settings: plain residues with an end cap or a label only (N-terminal biotin on a linker: ado-ado).
NOS1, P29475, sequence (P29475 9-101): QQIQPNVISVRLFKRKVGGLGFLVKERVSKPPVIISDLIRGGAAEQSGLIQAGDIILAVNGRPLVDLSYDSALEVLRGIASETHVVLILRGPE
Design: key: below the threshold = too weak to quantify, mostly under pKd 3.1 to 4
KIEDVEITLV [FCHSD2, O94868] gave a pKd of 3.8.
STYCDYTIEI [FAM71C, Q8NEG0] showed a pKd of 3.62.

What follows are binders tested against T10, GRIP1_2, Q9Y3R0 (assay: holdup assay). Settings: plain residues with an end cap or a label only (N-terminal biotin on a linker: ado-ado).
T10 sequence (Q9Y3R0 145-248, limits assumed, looked up): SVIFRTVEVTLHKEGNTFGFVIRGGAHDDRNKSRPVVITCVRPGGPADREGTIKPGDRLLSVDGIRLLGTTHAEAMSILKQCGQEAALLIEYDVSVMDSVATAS
Design: key: below the threshold = too weak to quantify, mostly under pKd 3.1 to 4
KIEDVEITLV [FCHSD2, O94868] was tested, and the pKd was “below the threshold”.
Binder STYCDYTIEI [FAM71C, Q8NEG0] has a pKd of 3.53.

What follows are binders tested against T11, DLG3_2, Q92796 (assay: holdup assay). Settings: plain residues with an end cap or a label only (N-terminal biotin on a linker: ado-ado).
T11 sequence (Q92796 221-321, limits assumed, looked up): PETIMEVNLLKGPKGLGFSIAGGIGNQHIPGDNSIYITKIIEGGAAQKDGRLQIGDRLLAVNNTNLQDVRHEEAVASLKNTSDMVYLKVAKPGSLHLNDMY
Design: key: below the threshold = too weak to quantify, mostly under pKd 3.1 to 4
Binder KIEDVEITLV [FCHSD2, O94868] has a pKd of 3.53.
For STYCDYTIEI [FAM71C, Q8NEG0], the pKd was “below the threshold”.

Each binder was assayed against Inadl_5, Q8NI35 (assay: holdup assay). Settings: plain residues with an end cap or a label only (N-terminal biotin on a linker: ado-ado).
Inadl_5, Q8NI35, sequence (Q8NI35 673-780): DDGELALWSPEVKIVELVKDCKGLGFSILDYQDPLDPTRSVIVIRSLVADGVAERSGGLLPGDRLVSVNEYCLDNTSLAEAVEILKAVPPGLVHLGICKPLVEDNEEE
Design: key: below the threshold = too weak to quantify, mostly under pKd 3.1 to 4
In the case of KIEDVEITLV [FCHSD2, O94868], the pKd is reported as “below the threshold”.
In the case of STYCDYTIEI [FAM71C, Q8NEG0], the pKd is reported as “below the threshold”.

Each binder was assayed against HTRA1, Q92743 (assay: holdup assay). Settings: plain residues with an end cap or a label only (N-terminal biotin on a linker: ado-ado).
HTRA1, Q92743, sequence (Q92743 360-477): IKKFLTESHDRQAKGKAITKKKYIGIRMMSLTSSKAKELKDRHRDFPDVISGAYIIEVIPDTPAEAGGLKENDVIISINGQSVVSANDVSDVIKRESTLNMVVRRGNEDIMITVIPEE
Design: key: below the threshold = too weak to quantify, mostly under pKd 3.1 to 4
For KIEDVEITLV [FCHSD2, O94868], the pKd was 5.5.
Binder STYCDYTIEI [FAM71C, Q8NEG0] has a pKd of 5.38.

Each binder was assayed against DLG4_2, P78352 (assay: holdup assay). Settings: plain residues with an end cap or a label only (N-terminal biotin on a linker: ado-ado).
DLG4_2, P78352, sequence (P78352 155-259): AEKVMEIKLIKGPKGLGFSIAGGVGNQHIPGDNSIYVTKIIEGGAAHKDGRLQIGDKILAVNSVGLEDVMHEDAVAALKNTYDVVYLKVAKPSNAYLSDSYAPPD
Design: key: below the threshold = too weak to quantify, mostly under pKd 3.1 to 4
KIEDVEITLV [FCHSD2, O94868] gave a pKd of 4.2.
In the case of STYCDYTIEI [FAM71C, Q8NEG0], the pKd is reported as “below the threshold”.

Each binder was assayed against T12, MPDZ_10, O75970 (assay: holdup assay). Settings: plain residues with an end cap or a label only (N-terminal biotin on a linker: ado-ado).
T12 sequence (O75970 1624-1722, limits assumed, looked up): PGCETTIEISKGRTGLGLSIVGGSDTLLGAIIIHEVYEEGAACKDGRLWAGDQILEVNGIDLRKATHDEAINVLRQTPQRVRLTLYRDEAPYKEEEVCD
Design: key: below the threshold = too weak to quantify, mostly under pKd 3.1 to 4
In the case of KIEDVEITLV [FCHSD2, O94868], the pKd is reported as 3.49.
STYCDYTIEI [FAM71C, Q8NEG0] was tested, and the pKd was “below the threshold”.
